From patent US20180141975A1 (VIROGIN BIOTECH CANADA, published 2018)
Each block holds one binder with its values, some of them ahead of it.

Experiments:
mouse PD-L1 Fc = molecular target: T1, mouse PD-L1 Fc (mouse, UniProt Q9EP73 19-238); experiment: competition ELISA, peptide at 3 and 10 uM against mouse PD-1 Fc on coated mouse PD-L1 Fc (FIG. 9A)
T1 construct: Plate-coated reagent; not shown: Fc part
Description: More specifically, mouse and human WT and TF peptides (3 and 10 μM) were mixed with recombinant mouse PD-1 Fc and bound to a mouse PD-L1 Fc coated 96-well Immuno Maxisorp flat bottom plate. Binding was detected via a biotinylated anti-mouse PD-1 antibody, streptavidin-horseradish peroxidase (HRP), and 3,3′, 5,5′ Tetramethylbenzidine (TMB) substrate. Absorbance measurements were collected at 450 nm via a plate reader. The increased percent (%) of mouse (and human) PD-1/PD L1 inhibition was compared to a control (no peptide) sample. […] The differences between the human and mouse peptides are illustrated in FIG. 9B.

[1] = molecular target: T2, recombinant human PD-L1 Fc (human, UniProt Q9NZQ7 19-239); experiment: summary of the examples (competition ELISA, peptide array)
T2 construct: Recombinant reagent; not shown: Fc part

[2] = molecular target: T2, recombinant human PD-L1 Fc; experiment: competition ELISA, peptides and combinations at 3 and 10 uM against human PD-1 Fc on coated human PD-L1 Fc (FIG. 5A)

T2 sequence (Q9NZQ7 19-239 limits assumed): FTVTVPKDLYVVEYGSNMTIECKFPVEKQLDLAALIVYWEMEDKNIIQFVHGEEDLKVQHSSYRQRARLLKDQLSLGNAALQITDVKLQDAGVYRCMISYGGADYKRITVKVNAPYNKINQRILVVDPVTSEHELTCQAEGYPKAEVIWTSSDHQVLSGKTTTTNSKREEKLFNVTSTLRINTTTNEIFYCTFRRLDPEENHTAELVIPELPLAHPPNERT
T1 sequence (Q9EP73 19-238 limits assumed): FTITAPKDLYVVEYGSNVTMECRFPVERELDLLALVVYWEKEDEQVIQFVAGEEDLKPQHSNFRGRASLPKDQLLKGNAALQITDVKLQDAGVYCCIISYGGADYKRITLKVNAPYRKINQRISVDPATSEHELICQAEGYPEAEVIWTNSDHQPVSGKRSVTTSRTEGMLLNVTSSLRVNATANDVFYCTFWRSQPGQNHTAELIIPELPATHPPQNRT

Binder: TRYPSPSPKPEGRF [Mouse TF peptide (SEQ ID NO:36, TRYPSPSPKPEGRF)]
binding result (mouse PD-L1 Fc): binds

B1: WT peptide (SEQ ID NO:1, WYRMSPSNQT) (peptide)
peptide: WYRMSPSNQT
notes: Chemically synthesized peptide found by a peptide array method; also called human WT peptide
binding result [1]: binds

Binder: EYRMSPSNQT (A derivative of the WT peptide (W1E)) [ET peptide (SEQ ID NO:25, EYRMSPSNQT)]
binding result [2]: binds

The remaining lines, values ahead:

binding result (mouse PD-L1 Fc): binds
Binder: WNRLSPSNQT [Mouse WT peptide (SEQ ID NO:35, WNRLSPSNQT)]

binding result [2]: binds
Binder: YYRMSPSNQT (A derivative of the WT peptide (W1Y)) [YT peptide (SEQ ID NO:28, YYRMSPSNQT)]
